Test: yeast display, Sf9 membrane polyspecificity reagent, FACS + sequencing; frameworks hold sequencing errors
Summary of the method: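 Sorting gates, low and high (top ~1%), were placed on anti-HA fluorescence to track expression and on streptavidin fluorescence to track reagent binding. A clone's polyreactivity label is taken from the gate it came out of. The reagent was 10% biotinylated, detergent-solubilized Sf9 membrane, applied for 1 hour at 4 °C to galactose-induced yeast display cells.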

| Sequence | polyreactivity (PSR sort gate) |
| --- | --- |
| QVQLVESGGGLVQAGGSLRLSCAASGSIFSYYAMGWYRQAPGKERELVAAISWGDDSTYYADSVKGRFTISRDNAKNTVYLQMNSLKPEDTAVYYCAADRVGWYRTFDYWGQGTQVTVSS | low polyreactivity |
| QVQLVESGGGLVHAGGSLRLSCAASGSTFTRNAMGWYRQAPGKERELVATISWRSGSTYYADSVKGRFTISRDNAKNTVYLQMNSLKQEDTAGYYCAADYLNIYNYWGQGTQVTVSS | high polyreactivity |
| QVQLVESVVGLVQAGGSLRLSCAASGRTFRVNAMGWYRQAPGKERELVAAITWSGGTTYYADSVKGRFTISRDNAKNTVYLQMNSLKPEDTAVYYCAADRFWYGSWYDYWGHGTQVTVSS | high polyreactivity |
| QVQLVESGGGLVQAGGSLRLSCAASGFIFYRYAMGWYRPAPGKERELVAAISRSGGTTYYADSVKGRFTISRDNAKNTVYLQMNSLKPEDTAVYYCNVKRGTIGGYYYWGQGTQVTVSS | high polyreactivity |
| QVQLVESGGGLVQAGGSLRLSCAASGRIFTLYAMGWYRQAPGKEREFVAAINRGGSTNYADSVKGRFTISRDNAKNTVYLQMNSLKPEDTAVYYCAAKTTSRFRTYSYDYWGQGTQVTVSS | high polyreactivity |
| QVQLVESGGGLFQAGGSLRLSCAASGIIFYVNDMGWYRQAPGKERELVADISGGTSTNYADSVKGRFTISRDNAKNTVYLQMNSLKPEDTAVYYCATAFIVQFPGSDYWGQGTQVTVSS | low polyreactivity |
| QVQLVESGGGLVQAGGSLRLSCAASGRTFPFNTMGWYRQAPGKERELVARISSGGSTYYADSVKGRFRISRDNAKNTVYLQMNSLKPEDTAVYYCATRYRYYSRLYDYWGQGTQVTVSS | high polyreactivity |
| QVQLVESGGGLVQAGGSLRLSCAASGRIFDYYAMGWYRQAPGKERELVATITSGSRTYYADSVKGRFTISRDNAKNTVYLQMNSLKPEDTAVYYCNTVSFKRLGWRYDYWGQGTQVTVSS | high polyreactivity |
| QVQLVESGGGLVQAGGSLRLSCAASGIIFSIYTMGRYRQAPGKERELVAAINRSGSRTYYADSVKGRFTISRDNAKNTVYLQMNSLKPEDTAVYYCAAGTGSRDYYWGQGTQVTVSS | high polyreactivity |
| QVQLVESGGGLVQAGGSLRLSCAASGRIFPKYAMGWYSQAPGKERELVAGITKRVGSTYYADSVKGRFTISRDNAKNTVYLQMNSLKPDDTAVYYCAADYRYLIDYLDPEKEGMDYWGQGTQVTVSS | low polyreactivity |
| QVQLVESGGGLVQAGGSLLLSCSASGRNFRANAMGWYRQAHRKERELVAAITSTGDRTYYADSVKGRFTISRDNAKNTVYLQMNSLKQEDTAVYYCAAENNRYGGYRKYDYWGLGTQVTVSS | low polyreactivity |
| QVQLVESGGGLVQAGGSLRLSCAASGLTFHAYAMGWYRQPPGKEREFVAAITRSGSSTSYADSVKGRFTISRDNAKNTVYLQMNSLKPEDTAVYYCAAQGSRKYRNDYWGQGTQVTVSS | high polyreactivity |
| QVQLVESGGGLVQAGGSLRLSCAASGYILQINAMGWYRQAPGKERELVAAISISGGNTYYADSVKGRFTISRDNAKNTVYLQMNSLKPEDTAVYYCAAYRYYSYLVRYGLLLAYYYWGQGTQVTVSS | low polyreactivity |
| QVQLVESGGGLVQAGGSLRLSCAASGRIYDYYAMGWYRQAPGKERELVAAISTSGGSTYYADSVKGRFTISRDHAKNTVYLQMKSLKPEDTAVYYCAKDITVTYPGLDYDYWGQVTQVTVSS | low polyreactivity |
| QVQLVESGGGLVQAGGSLRLSCAASGRTFPTNAMGWYIQAPGKERELVAVISRNSGRTYYADSVKGRFTISRDNAMNTVYFQMNSLKPEDTAVYYCAADKYTRAYYYWGQGTQVTVSS | high polyreactivity |
| QVQLVESGGGLVQAGGSLRLSCAASGIICWWNTMGWYRQAPGKERELVATITRGGSTYYADSVKGRFTISRDNAKNTVYLQMNSLKPEDTAVYYCNAVQYKYLAKSYDYWGQGTQVTVSS | low polyreactivity |

| Sequence | polyreactivity (PSR sort gate) |
| --- | --- |
| QVQLVESGGGLVQAGGSLRLSCAASGSIFRGNAMGWYIQAPGKERELVAGINRAGSTKYADSVKGRFTISRDNAKNTVYLQMNSLKPEDTAVYYCAAVRYVRCLWSDYWGQGTKVTVSS | high polyreactivity |
| QVQLVESGGGLVQAGGSLRLSCAASGITFDRYAMAWYRHAPGKERELVAAITSSGGRTYYADSVKGRFTISRDNAKNTVYLQMNSLKPEDTAVYYCNTPWQNRADSHRDYWGQGTQVTVSS | high polyreactivity |
| QVQLVESGGGLVQAGGSLRISCAASGFSCRQYAMGWYRQAPGKERELVAAISSSGGRTYYADSVKGRFTISRDNAKNTVYLQMNSLKPEDTAVYYCIARAWLRVEYGEGYWGQGTQVTVSS | high polyreactivity |
| QVQLVESCGGLVQAGGSLRLSCAASGSTFRYNAMGWYRQAPGKERELVAAISWSGGSTYYADSVKGRFTISRDNAKNTVYLQMNSLKPEDTAVYYCAKVYFWGALSPDKFDEDYWGQGTQVTVSS | low polyreactivity |
| QDQLVESAGGLVQAGGSLRLSCAASGRTFVTNTMGWSRQAPGKERELVAAISSRGGTTYYADSVKGRFTISRDNAKNTVYLQMNSLKPEDTAVYYCNTGTRAIQRDGFEYWGQGTQVTVSS | low polyreactivity |
| QVQLVESGGGLVQAGGSLRLSCAASGSIFVPYAMGWYRQAPGKERELVATITISGGSTYYADSVKGRFTISRDNAKNTVYLQMNSLKPEDTAVYYCAAETTASYYKRTDDYDYWGQGTQVTVSS | low polyreactivity |
| LVQLVESGGGIVQAGGSLRLTCAASGRTFWGYSMGWYRQSPGKERELVAAISWTGGRTYYADSVKGRFTISRDYAKNSVNLQMNSLKPEDTAVYDCARPYTTYDGRYHYWGQGTQVTVSS | high polyreactivity |
| QVQLVESGGGLVQAGGSLRLRCAASGGIFGLYTMGWYRPAPGKERELVAGISKRGTRTRYADSVKGRFTISRDNAKNTVYIQMTSLKPEDTAVYYCNADYYVSKLDYWGQGTQVTVSS | high polyreactivity |
| QVQLVESGGGLVQAGGSLRLSCAASGSTIGYYARGWSRQAPGKERELVARIRSTGVSTFYADSVKGRFTISRDNAKNTVYLQMNSLKPEDTAVYYCAAPVSSLGWKHRQYTTWYEYWGQGTQVTVSS | high polyreactivity |
| QVHLVESGGGLVQAGGSLRLSCADSGFTFRRYTMGWYRQAPGKERELVAVISASGGSTYYADSVKGRFTISRDNAKNTVYLQMNSLKPEDTAVYYCNTRAVVIGGDYWGQGTQVTVSS | high polyreactivity |
| QVQLVESGGGLVQAGGSLRLSCAASGLTSVYNAMGWYRQAPGKERELVAAISWRGGRTYYADSVKGRFTISRDNAKNTVYLQMNSLKPEDTAVYYCARGYYTRPYYNPVFGYNYWGQGTQVTVSS | high polyreactivity |
| QVQLVESAGGLVQAGGSLRLSCAASGSTFQWYAMGWSRQAPGKERELVAAIDSDGGTNYADSVKGRFTISRDNAKNTVYLQMNSLKPEDTAVYYCAVKPFYYGSEFDYWGQGTQVTVSS | low polyreactivity |
| QVQLVESGGGLVQAGGILRLSCAASGSTFDYNTMGWYRQAPGKERELVAAISESGGSTYYADSVKGRFTISRDNAKNTVYLQMNSLKPEDTAVYYCATDDFGGYFGEYDYWGQGTQVTVSS | low polyreactivity |
| QVQLVESGGGLVQAGGSLRLSCAASGLIFKVYAMGWYRQAPGKERELVAAITYSGGSTDYADSVKGRFTISRDNAKNTVYLQMNSLKPEDTAVYYCNVEKVGHVNSYGYDYWGQGTQVTVSS | low polyreactivity |
| QVQLVESGGGLVQAGVSLRLSCAASGFTFYPYAMGWYRQAPGKERELVAAISYSGGRTYADSVKGRFTISRDNAKNTVYLQMNSLKPEDTAVYYCAADWTVLVYPYYHEYDYWGQGTQVTVSS | low polyreactivity |
